Assay results: PMC7573561

Biological target: Actin (coated on BLI biosensors)
Assay: BLI; Octet RED, 25 C; APS (aminopropylsilane) biosensors coated with 10 ug/mL actin; rPDCP-1 in PBS pH 7.4 with 0.05% Tween 20 and 0.1% BSA; 300 s association, 120 s dissociation

Kd: 0.783 µM
Substance: Recombinant PDZ-domain-containing-protein-1 (rPDCP-1) (natural protein)
